Among the data in article PMC5419085 are percent inhibition of ADAMTS-5 binding to LRP1 values, retold here.

The target of the assay is full-length human LRP1 (low-density lipoprotein receptor-related protein 1) (human). Nature of the assay: ELISA; full-length human LRP1 (5 nM) coated on microtiter plates; biotinylated ADAMTS-5-2 (6 nM) with or without antibodies or RAP (each 100 nM); detected by AP-conjugated streptavidin; TNC buffer, 2 h, room temperature; bound amount as % of that without antibodies or RAP.

With “receptor-associated protein (RAP) (from UniProt P30533 35-357) (natural protein)”, the percent inhibition of ADAMTS-5 binding to LRP1 at 100 nM came out at 75%.
